We go through three molecules from article PMC5027291, “The NF-YC–RGL2 module integrates GA and ABA signalling to regulate seed germination in Arabidopsis” (Nature Communications, 2016).

For this assay, the target named is T1, GST-RGL2 (Arabidopsis, UniProt Q8GXW1 1-547).
T1 construct: RGL2 of Arabidopsis; coding region cloned into pGEX-4T-1; source: E. coli Rosetta (DE3), purified (Glutathione Sepharose beads); not shown: GST, N-terminal, kept
T1 sequence (looked up): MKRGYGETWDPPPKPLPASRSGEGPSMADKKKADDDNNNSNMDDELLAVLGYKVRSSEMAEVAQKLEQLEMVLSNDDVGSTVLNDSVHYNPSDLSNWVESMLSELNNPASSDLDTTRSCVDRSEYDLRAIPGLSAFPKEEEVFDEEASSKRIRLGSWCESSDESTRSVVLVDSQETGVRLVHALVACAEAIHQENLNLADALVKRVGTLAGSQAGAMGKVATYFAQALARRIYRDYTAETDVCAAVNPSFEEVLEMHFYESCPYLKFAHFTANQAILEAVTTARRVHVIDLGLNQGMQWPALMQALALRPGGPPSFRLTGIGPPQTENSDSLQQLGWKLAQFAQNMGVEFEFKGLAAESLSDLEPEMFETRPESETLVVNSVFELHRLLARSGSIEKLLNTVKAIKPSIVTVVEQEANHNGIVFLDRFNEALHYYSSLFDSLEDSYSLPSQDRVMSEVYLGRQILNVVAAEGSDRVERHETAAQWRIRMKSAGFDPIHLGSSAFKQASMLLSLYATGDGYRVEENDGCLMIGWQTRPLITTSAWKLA
Briefly: pull-down; 2 ug of His-NF-YCs incubated with GST or GST-RGL2 immobilised on Glutathione Sepharose beads; 50 mM Tris-HCl pH 8.0, 100 mM NaCl, 1 mM EDTA; 4 °C, 2 h; blots with anti-His and anti-GST. As to conditions: both partners purified.

B1: His-NF-YC4 (natural protein, Arabidopsis, UniProt Q9FMV5 1-250, looked up)
chain: MDNNNNNNNQQPPPTSVYPPGSAVTTVIPPPPSGSASIVTGGGATYHHLLQQQQQQLQMFWTYQRQEIEQVNDFKNHQLPLARIKKIMKADEDVRMISAEAPILFAKACELFILELTIRSWLHAEENKRRTLQKNDIAAAITRTDIFDFLVDIVPREEIKEEEDAASALGGGGMVAPAASGVPYYYPPMGQPAVPGGMMIGRPAMDPSGVYAQPPSQAWQSVWQNSAGGGDDVSYGSGGSSGHGNLDSQG
notes: NF-YC4 of Arabidopsis; coding region cloned into pQE30; source: E. coli Rosetta (DE3), purified (Ni-NTA agarose); not shown: His, N-terminal, kept
Regarding B1, the binding result is reported as “binds”.

B2: His-NF-YC9 (natural protein, Arabidopsis, UniProt Q8L4B2 1-231, looked up)
chain: MDQQDHGQSGAMNYGTNPYQTNPMSTTAATVAGGAAQPGQLAFHQIHQQQQQQQLAQQLQAFWENQFKEIEKTTDFKNHSLPLARIKKIMKADEDVRMISAEAPVVFARACEMFILELTLRSWNHTEENKRRTLQKNDIAAAVTRTDIFDFLVDIVPREDLRDEVLGSIPRGTVPEAAAAGYPYGYLPAGTAPIGNPGMVMGNPGGAYPPNPYMGQPMWQQQAPDQPDQEN
notes: NF-YC9 of Arabidopsis; coding region cloned into pQE30; source: E. coli Rosetta (DE3), purified (Ni-NTA agarose); not shown: His, N-terminal, kept
As for B2, the binding result was “binds”.

B3: His-NF-YC3 (natural protein, Arabidopsis, UniProt Q9ZVL3 1-217, looked up)
chain: MDQQGQSSAMNYGSNPYQTNAMTTTPTGSDHPAYHQIHQQQQQQLTQQLQSFWETQFKEIEKTTDFKNHSLPLARIKKIMKADEDVRMISAEAPVVFARACEMFILELTLRSWNHTEENKRRTLQKNDIAAAVTRTDIFDFLVDIVPREDLRDEVLGGVGAEAATAAGYPYGYLPPGTAPIGNPGMVMGNPGAYPPNPYMGQPMWQQPGPEQQDPDN
notes: NF-YC3 of Arabidopsis; coding region cloned into pQE30; source: E. coli Rosetta (DE3), purified (Ni-NTA agarose); not shown: His, N-terminal, kept
For the molecule B3, the binding result is “binds”.
